What all share (experiment): flow cytometry, protein L-biotin then streptavidin-PE on CAR T cells
(A flow cytometer gives signals particle by particle.)

Assay [1] has as its target tandem CD19/CD20 chimeric antigen receptor, Construct CAR 1920 (Leader-CD19 VL-Whitlow linker CD19 VH (GGGGS)-5 CD20 VH (GGGGS)-3 CD20 VL CD8 hinge+TM-4-1BB-CD3z).
Assay [2] concerns the target CARs on the transduced T cell surface.
Assay [3] has as its target tandem CD20/CD19 chimeric antigen receptor, Construct CAR 2019 (Leader-CD20 VH (GGGGS)3-CD20 VL-(GGGGS)5-CD19 VL-Whitlow linker-CD19 VH CD8 hinge+TM-4-1BB-CD3z).

The text below walks through data of patent US20240034802A1.

Sequence of tandem CD19/CD20 chimeric antigen receptor, Construct CAR 1920 (Leader-CD19 VL-Whitlow linker CD19 VH (GGGGS)-5 CD20 VH (GGGGS)-3 CD20 VL CD8 hinge+TM-4-1BB-CD3z) (chain, as listed by the source mutant): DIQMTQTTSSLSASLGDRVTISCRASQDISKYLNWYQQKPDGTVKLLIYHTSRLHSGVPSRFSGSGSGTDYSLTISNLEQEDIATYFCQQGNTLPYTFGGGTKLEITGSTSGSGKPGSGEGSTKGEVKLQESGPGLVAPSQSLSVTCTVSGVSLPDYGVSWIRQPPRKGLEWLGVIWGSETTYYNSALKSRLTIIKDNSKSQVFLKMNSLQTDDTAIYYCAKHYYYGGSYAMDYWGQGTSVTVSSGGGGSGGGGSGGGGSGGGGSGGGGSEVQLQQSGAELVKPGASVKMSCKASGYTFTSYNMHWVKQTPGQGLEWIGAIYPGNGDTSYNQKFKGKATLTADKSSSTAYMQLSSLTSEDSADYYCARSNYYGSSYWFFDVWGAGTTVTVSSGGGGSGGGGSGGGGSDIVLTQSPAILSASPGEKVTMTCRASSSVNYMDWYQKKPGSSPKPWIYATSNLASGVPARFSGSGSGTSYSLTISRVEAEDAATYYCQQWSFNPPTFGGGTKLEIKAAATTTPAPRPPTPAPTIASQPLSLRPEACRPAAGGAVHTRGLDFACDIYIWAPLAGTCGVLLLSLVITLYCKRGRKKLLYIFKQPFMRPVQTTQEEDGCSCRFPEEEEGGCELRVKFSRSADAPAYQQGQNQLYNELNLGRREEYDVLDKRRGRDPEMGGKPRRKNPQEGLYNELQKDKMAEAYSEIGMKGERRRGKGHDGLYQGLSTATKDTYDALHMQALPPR
Sequence of tandem CD20/CD19 chimeric antigen receptor, Construct CAR 2019 (Leader-CD20 VH (GGGGS)3-CD20 VL-(GGGGS)5-CD19 VL-Whitlow linker-CD19 VH CD8 hinge+TM-4-1BB-CD3z) (chain, as listed by the source mutant): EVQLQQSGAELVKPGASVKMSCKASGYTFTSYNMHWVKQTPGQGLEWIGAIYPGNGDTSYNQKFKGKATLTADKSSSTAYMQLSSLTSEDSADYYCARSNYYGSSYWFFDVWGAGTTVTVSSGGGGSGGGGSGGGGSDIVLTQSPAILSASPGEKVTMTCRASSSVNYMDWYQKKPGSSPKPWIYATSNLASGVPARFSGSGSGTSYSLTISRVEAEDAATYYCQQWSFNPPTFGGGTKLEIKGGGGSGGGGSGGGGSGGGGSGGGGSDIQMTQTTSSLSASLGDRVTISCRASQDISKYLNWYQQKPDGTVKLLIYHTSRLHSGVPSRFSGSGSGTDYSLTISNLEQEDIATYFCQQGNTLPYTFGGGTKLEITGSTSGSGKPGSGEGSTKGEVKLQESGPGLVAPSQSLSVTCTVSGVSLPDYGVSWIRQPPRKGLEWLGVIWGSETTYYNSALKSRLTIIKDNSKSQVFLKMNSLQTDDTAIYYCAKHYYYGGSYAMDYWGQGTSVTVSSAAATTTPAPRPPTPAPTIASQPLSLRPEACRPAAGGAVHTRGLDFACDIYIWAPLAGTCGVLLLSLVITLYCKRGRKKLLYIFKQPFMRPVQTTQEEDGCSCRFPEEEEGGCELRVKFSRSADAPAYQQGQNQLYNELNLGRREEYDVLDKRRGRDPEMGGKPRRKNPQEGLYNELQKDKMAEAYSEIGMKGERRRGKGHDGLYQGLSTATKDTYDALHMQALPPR

With protein L-biotin conjugate (GenScript), the percent of transduced T cells stained turned out to be 85% in assay [1] and 89% in assay [3]. The percent of transduced T cells stained (CAR surface expression) in assay [2] is 61 to 93%.
